Measurements reported in IntAct's records for PubMed 28469241.

B1: Heart- and neural crest derivatives-expressed protein 2 (Mus musculus), Q61039 (parent)
chain: MSLVGGFPHHPVVHHEGYPFAAAAAAAAAAAASRCSHEENPYFHGWLIGHPEMSPPDYSMALSYSPEYASGAAGLDHSHYGGVPPGAGPPGLGGPRPVKRRGTANRKERRRTQSINSAFAELRECIPNVPADTKLSKIKTLRLATSYIAYLMDLLAKDDQNGEAEAFKAEIKKTDVKEEKRKKELNEILKSTVSSNDKKTKGRTGWPQHVWALELKQ
partner: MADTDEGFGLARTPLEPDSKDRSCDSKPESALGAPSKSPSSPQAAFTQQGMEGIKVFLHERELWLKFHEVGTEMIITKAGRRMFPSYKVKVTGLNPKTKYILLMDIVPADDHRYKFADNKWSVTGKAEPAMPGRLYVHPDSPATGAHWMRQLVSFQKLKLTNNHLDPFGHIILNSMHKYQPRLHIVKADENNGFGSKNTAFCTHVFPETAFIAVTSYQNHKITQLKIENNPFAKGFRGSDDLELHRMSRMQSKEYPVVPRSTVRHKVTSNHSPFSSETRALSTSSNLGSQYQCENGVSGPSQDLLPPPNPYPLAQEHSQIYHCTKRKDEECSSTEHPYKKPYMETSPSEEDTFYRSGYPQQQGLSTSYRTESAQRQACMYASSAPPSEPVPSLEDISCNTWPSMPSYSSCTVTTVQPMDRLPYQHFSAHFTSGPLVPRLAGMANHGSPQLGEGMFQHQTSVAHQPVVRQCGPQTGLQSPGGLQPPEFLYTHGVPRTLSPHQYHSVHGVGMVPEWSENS

Variants of: B1
Conditions: with tbx5_mouse Tbx5, P70326

Row | effect of a mutation on the interaction | Variant
1 | decreasing interaction strength | G202V
